The supplement of paper PMC9112550, “Optimization of the antimicrobial peptide Bac7 by deep mutational scanning” (BMC Biology, 2022)

system: Escherichia coli TOP10; assay: shrunken log2 fold change of peptide-encoding DNA abundance (4.5 h post-induction vs induction); higher = less antimicrobial activity (less host growth inhibition); settings: time post-induction: 4.5 h; library: site-saturation at positions 5, 18, 19, 20
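Note: peptides expressed intracellularly from a pBAD plasmid library in pooled LB shake-flask culture, induced with 0.3% L-arabinose, DNA abundance read by NGS, three biological replicates, DESeq2 with apeglm shrinkage.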

Sequence | shrunken log2 fold change
RRIRFRPPRLPRPRPRPQGIPRP | 0.0254
RRIRDRPPRLPRPRPRPMVIPRP | 0.0392
RRIRVRPPRLPRPRPRPKWHPRP | -0.123
RRIRDRPPRLPRPRPRPSLLPRP | 0.05
RRIRSRPPRLPRPRPRPIQMPRP | -0.103
RRIRKRPPRLPRPRPRPLDAPRP | 0.748
RRIRCRPPRLPRPRPRPLKKPRP | -0.26
RRIRRRPPRLPRPRPRPPDMPRP | 0.432
RRIRVRPPRLPRPRPRPHTIPRP | -0.487
RRIRARPPRLPRPRPRPHCSPRP | -0.131
RRIRCRPPRLPRPRPRPFIGPRP | -0.228
RRIRLRPPRLPRPRPRPILNPRP | -0.389
RRIRSRPPRLPRPRPRPAAEPRP | 0.466
RRIRCRPPRLPRPRPRPESHPRP | 0.0129
RRIRWRPPRLPRPRPRPEMNPRP | 0.753
RRIRWRPPRLPRPRPRPEKEPRP | 0.0112
RRIRPRPPRLPRPRPRPDQDPRP | 0.0461
RRIRLRPPRLPRPRPRPAVCPRP | 0.0348
RRIRFRPPRLPRPRPRPNGWPRP | 0.0579
RRIRPRPPRLPRPRPRPRTYPRP | -0.196
RRIRCRPPRLPRPRPRPHSLPRP | -0.493
RRIRRRPPRLPRPRPRPQGPPRP | 0.206
RRIRFRPPRLPRPRPRPAMYPRP | -0.246
RRIRVRPPRLPRPRPRPEVPPRP | 0.326
RRIRSRPPRLPRPRPRPYSHPRP | -0.712

Sequence | shrunken log2 fold change
RRIRDRPPRLPRPRPRPMKLPRP | -0.0161
RRIRRRPPRLPRPRPRPNCHPRP | -0.0432
RRIRDRPPRLPRPRPRPFNTPRP | -0.686
RRIRCRPPRLPRPRPRPVWGPRP | -0.0554
RRIRHRPPRLPRPRPRPKHHPRP | -0.493
RRIRHRPPRLPRPRPRPIVNPRP | 0.114
RRIRERPPRLPRPRPRPYLWPRP | -0.431
RRIRDRPPRLPRPRPRPSWSPRP | -0.369
RRIRWRPPRLPRPRPRPMACPRP | -0.0978
RRIRWRPPRLPRPRPRPYHSPRP | -0.215
RRIRRRPPRLPRPRPRPRIMPRP | 0.0517
RRIRCRPPRLPRPRPRPESRPRP | 0.276
RRIRFRPPRLPRPRPRPDATPRP | 0.486
RRIRNRPPRLPRPRPRPGAGPRP | 0.234
RRIRDRPPRLPRPRPRPFPHPRP | -0.303
RRIRKRPPRLPRPRPRPKRSPRP | 0.667
RRIRERPPRLPRPRPRPCKRPRP | -0.294
RRIRTRPPRLPRPRPRPPREPRP | 0.141
RRIRHRPPRLPRPRPRPWCFPRP | -0.688
RRIRERPPRLPRPRPRPTSNPRP | -0.504
RRIRGRPPRLPRPRPRPRHDPRP | 0.417
RRIRVRPPRLPRPRPRPVLRPRP | 0.187
RRIRKRPPRLPRPRPRPPMLPRP | 0.203
RRIRRRPPRLPRPRPRPHIIPRP | -0.259
RRIRKRPPRLPRPRPRPMVAPRP | 0.629

Sequence | shrunken log2 fold change
RRIRERPPRLPRPRPRPGTSPRP | 1.87
RRIRKRPPRLPRPRPRPHQNPRP | 0.0256
RRIRQRPPRLPRPRPRPLTGPRP | -0.0104
RRIRKRPPRLPRPRPRPNNAPRP | 0.243
RRIRIRPPRLPRPRPRPYHAPRP | -0.0781
RRIRFRPPRLPRPRPRPKSPPRP | -0.143
RRIRGRPPRLPRPRPRPVASPRP | 0.623
RRIRFRPPRLPRPRPRPSRIPRP | -0.119
RRIRGRPPRLPRPRPRPWWCPRP | 0.127
RRIRGRPPRLPRPRPRPKAQPRP | 1.27
RRIRGRPPRLPRPRPRPENPPRP | 0.842
RRIRWRPPRLPRPRPRPLRFPRP | 0.399
RRIRNRPPRLPRPRPRPSIRPRP | -0.0225
RRIRARPPRLPRPRPRPAIIPRP | 0.101
RRIRIRPPRLPRPRPRPCIWPRP | -0.278
RRIRARPPRLPRPRPRPWDFPRP | -0.00352
RRIRGRPPRLPRPRPRPRRAPRP | 0.963
RRIRKRPPRLPRPRPRPIDKPRP | 0.0797
RRIRVRPPRLPRPRPRPELRPRP | 0.123
RRIRVRPPRLPRPRPRPQTCPRP | -0.193
RRIRNRPPRLPRPRPRPWLFPRP | 0.0966
RRIRFRPPRLPRPRPRPRSWPRP | 0.135
RRIRNRPPRLPRPRPRPSVFPRP | -0.342
RRIRWRPPRLPRPRPRPTLMPRP | 0.479
RRIRTRPPRLPRPRPRPQMSPRP | 0.056

Sequence | shrunken log2 fold change
RRIRVRPPRLPRPRPRPNDWPRP | -0.208
RRIRYRPPRLPRPRPRPSVYPRP | -0.888
RRIRMRPPRLPRPRPRPLRSPRP | 2.47
RRIRSRPPRLPRPRPRPHKHPRP | -0.411
RRIRGRPPRLPRPRPRPKVNPRP | 0.236
RRIRRRPPRLPRPRPRPFTVPRP | -0.118
RRIRFRPPRLPRPRPRPTVPPRP | 0.341
RRIRYRPPRLPRPRPRPRWFPRP | -0.0532
RRIRNRPPRLPRPRPRPGRFPRP | 0.327
RRIRTRPPRLPRPRPRPRYQPRP | -0.0799
RRIRFRPPRLPRPRPRPWCFPRP | -0.282
RRIRARPPRLPRPRPRPLAWPRP | 0.721
RRIRWRPPRLPRPRPRPSSGPRP | -0.00985
RRIRMRPPRLPRPRPRPNADPRP | 2.51
RRIRHRPPRLPRPRPRPEVPPRP | -0.00339
RRIRRRPPRLPRPRPRPHNIPRP | -0.127
RRIRARPPRLPRPRPRPCNQPRP | -0.253
RRIRRRPPRLPRPRPRPLGGPRP | 0.376
RRIRLRPPRLPRPRPRPQEWPRP | 0.0562
RRIRFRPPRLPRPRPRPVYPPRP | -0.477
RRIRMRPPRLPRPRPRPDVMPRP | 0.147
RRIRRRPPRLPRPRPRPAVRPRP | 0.0847
RRIRSRPPRLPRPRPRPPRRPRP | 0.701
RRIRGRPPRLPRPRPRPNGMPRP | 0.106
RRIRNRPPRLPRPRPRPWYFPRP | -0.222

Sequence | shrunken log2 fold change
RRIRLRPPRLPRPRPRPAQHPRP | -0.132
RRIRPRPPRLPRPRPRPETHPRP | 0.221
RRIRTRPPRLPRPRPRPMIEPRP | -0.244
RRIRNRPPRLPRPRPRPKSFPRP | -0.00133
RRIRVRPPRLPRPRPRPWCNPRP | 3.15
RRIRQRPPRLPRPRPRPSTCPRP | -0.0113
RRIRSRPPRLPRPRPRPQAQPRP | -0.121
RRIRGRPPRLPRPRPRPDLGPRP | 0.688
RRIRMRPPRLPRPRPRPNMRPRP | 1.6
RRIRYRPPRLPRPRPRPMVRPRP | -0.0135
RRIRDRPPRLPRPRPRPVWWPRP | -0.00968
RRIRHRPPRLPRPRPRPSHTPRP | -0.248
RRIRGRPPRLPRPRPRPSCRPRP | 0.417
RRIRSRPPRLPRPRPRPRMFPRP | -0.121
RRIRARPPRLPRPRPRPDSTPRP | -0.0804
RRIRNRPPRLPRPRPRPFSKPRP | -0.303
RRIRMRPPRLPRPRPRPGDIPRP | 0.025
RRIRIRPPRLPRPRPRPGNRPRP | -0.0134
RRIRRRPPRLPRPRPRPMCHPRP | -0.191
RRIRGRPPRLPRPRPRPVWEPRP | 0.761
RRIRDRPPRLPRPRPRPWGWPRP | 0.226
RRIRARPPRLPRPRPRPRTNPRP | 0.329
RRIRHRPPRLPRPRPRPQCDPRP | -0.13
RRIRTRPPRLPRPRPRPIAAPRP | 0.894
RRIRWRPPRLPRPRPRPCVKPRP | -0.0416

Sequence | shrunken log2 fold change
RRIRARPPRLPRPRPRPVGCPRP | 0.768
RRIRPRPPRLPRPRPRPEYFPRP | -0.185
RRIRSRPPRLPRPRPRPDGMPRP | -0.113
RRIRYRPPRLPRPRPRPVIGPRP | -0.661
RRIRIRPPRLPRPRPRPLRSPRP | 0.299
RRIRWRPPRLPRPRPRPFGMPRP | -0.283
RRIRYRPPRLPRPRPRPVPRPRP | 0.204
RRIRDRPPRLPRPRPRPMLGPRP | 0.015
RRIRTRPPRLPRPRPRPPHPPRP | 0.255
RRIRSRPPRLPRPRPRPGIQPRP | 0.0642
RRIRARPPRLPRPRPRPLHNPRP | 0.00865
RRIRQRPPRLPRPRPRPQWCPRP | 0.142
RRIRNRPPRLPRPRPRPFGPPRP | -0.406
RRIRRRPPRLPRPRPRPCHAPRP | -0.0577
RRIRERPPRLPRPRPRPGSNPRP | -0.0638
RRIRARPPRLPRPRPRPQENPRP | 0.394
RRIRGRPPRLPRPRPRPKQIPRP | 0.335
RRIRQRPPRLPRPRPRPRCGPRP | 0.236
RRIRVRPPRLPRPRPRPDARPRP | 0.262
RRIRRRPPRLPRPRPRPQDGPRP | 0.106
RRIRARPPRLPRPRPRPTKHPRP | 0.217
RRIRERPPRLPRPRPRPKRNPRP | -0.114
RRIRTRPPRLPRPRPRPMTTPRP | 0.000642
RRIRARPPRLPRPRPRPYDNPRP | -0.0875
RRIRERPPRLPRPRPRPNCDPRP | -0.261
